Article PMC9606859, “Chemical Synthesis of Trans 8-Methyl-6-Nonenoyl-CoA and Functional Expression Unravel Capsaicin Synthase Activity Encoded by the Pun1 Locus” (Molecules, 2022)

Substrate: CC(C)/C=C/CCCCC(=O)SCCNC(=O)CCNC(=O)[C@H](O)C(C)(C)COP(=O)(O)OP(=O)(O)OC[C@H]1O[C@@H](n2cnc3c(N)ncnc32)[C@H](O)[C@@H]1OP(=O)(O)O
Assay: HPLC/MS capsaicin formation
Type: biochemical, Capsicum chinense
Conditions: co-substrate vanilloylamine (saturating per Figure S3), 50 mM TRIS/HCl pH 7.5, 150 mM NaCl, 10% glycerol, 1 mM TCEP, partly purified enzyme, single measurement, three technical replicates

B1: recombinant capsaicin synthase (AT3, Pun1) (Capsicum chinense) (protein)
chain: MAFALPSSLVSVCDKSFIKPSSLTPSTLRFHKLSFIDQSLSNMYIPCAFFYPKVQQRLEDSKNSDELSHIAHLLQTSLSQTLVSYYPYAGKLKDNATVDCNDMGAEFLSVRIKCSMSEILDHPHASLAESIVLPKDLPWANNCEGGNLLVVQVSKFDCGGIAISVCFSHKIGDGCSLLNFLNDWSSVTRDHTTTTLVPSPRFVGDSVFSTKTYGSLTTPQILSDLNECVQKRLIFPTDKLDALRAKVAEESGVKNPTRAEVVSALLFKCATKASSSMLPSKLVHFLNIRTMIKPRLPRNTIGNLSSIFSIEATNMQDMELPTLVRNLRKEVEVAYKKDQVEQNELILEVVESMREGKLPFENMDGYENVYTCSNLCKYPYYTVDFGWGRPERVCLGNGPSKNAFFLKDYKAGQGVEARVMLHKQQMSEFERNEELLEFIA
notes: full length, codon-optimized 1332 bp NdeI/XhoI fragment in pET-16b, His-tag (2 kDa) kept; E. coli SoluBL21; partly purified (Ni-NTA, SEC); monomer
  Km: 480 ± 240 µM
